Legend:
Assay in all cases: ITC
[1] = target: wild-type mouse Rbpj core (residues 53-474) (mouse, UniProt P31266 53-474)
[2] = target: mouse Rbpj core (residues 53-474) F92V variant (mouse, UniProt P31266 53-474, F92V)
[3] = target: mouse Rbpj core (residues 53-474) R91G variant (mouse, UniProt P31266 53-474, R91G)
[4] = target: mouse Rbpj core (residues 53-474) S358R variant (mouse, UniProt P31266 53-474, S358R)

Measured: binding result

Chain of mouse Rbpj core (residues 53-474) F92V variant (P31266 53-474 F92V): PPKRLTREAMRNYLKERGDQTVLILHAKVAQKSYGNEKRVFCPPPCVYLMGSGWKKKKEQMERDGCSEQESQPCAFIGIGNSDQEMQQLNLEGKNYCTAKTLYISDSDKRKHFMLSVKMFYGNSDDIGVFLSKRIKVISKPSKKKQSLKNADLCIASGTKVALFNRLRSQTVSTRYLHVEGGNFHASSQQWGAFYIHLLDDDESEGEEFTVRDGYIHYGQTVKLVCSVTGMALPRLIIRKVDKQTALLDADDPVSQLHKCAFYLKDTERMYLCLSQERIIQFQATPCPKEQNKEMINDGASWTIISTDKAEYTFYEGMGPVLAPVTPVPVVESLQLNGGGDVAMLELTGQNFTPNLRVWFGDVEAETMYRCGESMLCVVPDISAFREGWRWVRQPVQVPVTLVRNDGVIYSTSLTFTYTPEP
Chain of wild-type mouse Rbpj core (residues 53-474) (P31266 53-474): as the sequence (P31266 53-474 F92V) above, with V40F counted along it
Chain of mouse Rbpj core (residues 53-474) S358R variant (P31266 53-474 S358R): as the sequence (P31266 53-474 F92V) above, with V40F, S306R counted along it
Chain of mouse Rbpj core (residues 53-474) R91G variant (P31266 53-474 R91G): as the sequence (P31266 53-474 F92V) above, with R39G, V40F counted along it

VLLSRKRRRQHGQLWFPEGFKVSEASKK [peptide consisting of residues 1754-1781 of human NOTCH1]
binds: all assays above

B1: human SHARP residues 2776-2833 (domain or fragment)
chain: RASANENSRFHPGSMPVIDDRPADAGSGAGLRVNTSEGVVLLSYSGQKTEGPQRISAK
binds: [1] | [2] | [4]
